Data published in publication PMC4738285 (Scientific Reports, 2016).

Target: T1, recombinant human Hsp70 (human, UniProt P0DMV8 1-641)
T1 construct: also called stress-inducible chaperone Hsp70
Test: other fluorescence titration
Details: both partners purified

T1 sequence (P0DMV8 whole entry): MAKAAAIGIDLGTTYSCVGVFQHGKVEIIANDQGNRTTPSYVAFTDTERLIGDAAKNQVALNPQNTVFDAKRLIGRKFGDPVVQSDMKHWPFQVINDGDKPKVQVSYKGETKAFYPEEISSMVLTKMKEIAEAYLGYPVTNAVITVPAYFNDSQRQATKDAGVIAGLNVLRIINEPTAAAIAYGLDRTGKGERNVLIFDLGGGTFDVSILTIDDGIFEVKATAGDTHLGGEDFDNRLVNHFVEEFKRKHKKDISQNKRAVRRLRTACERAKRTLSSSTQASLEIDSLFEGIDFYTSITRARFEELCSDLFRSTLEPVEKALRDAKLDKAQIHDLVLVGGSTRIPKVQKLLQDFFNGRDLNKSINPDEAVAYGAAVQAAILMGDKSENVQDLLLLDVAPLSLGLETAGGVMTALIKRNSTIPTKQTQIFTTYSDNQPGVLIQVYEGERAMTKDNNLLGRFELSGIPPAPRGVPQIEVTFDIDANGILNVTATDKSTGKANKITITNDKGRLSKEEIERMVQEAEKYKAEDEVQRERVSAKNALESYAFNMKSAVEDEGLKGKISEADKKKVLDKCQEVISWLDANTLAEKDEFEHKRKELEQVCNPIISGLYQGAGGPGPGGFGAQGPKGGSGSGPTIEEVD

Binder: NRLLLTG (also called NR peptide) [peptide NRLLLTG]
- IC50: 11.5 ± 3.8 µM
